Measured values published in patent publication US12467929.
Blank lines part the entries; values can stand above or below the substance they belong to.

Columns and labels:
[1] = target: recombinant UBE3A protein (Homo sapiens (Human)) (UniProt Q05086); experiment: 3-step Simoa; capture GTX; UBE3A 7.81 ng/ml
[2] = target: recombinant UBE3A protein (Homo sapiens (Human)) (UniProt Q05086); experiment: Simoa; capture GTX; SBG 150 pm; UBE3A 0.800 ng/ml
[3] = target: recombinant UBE3A protein (Homo sapiens (Human)) (UniProt Q05086); experiment: Simoa; capture GTX + helper beads; 3E5 0.4 ug/ml; UBE3A 0.0320 ng/ml
[4] = target: recombinant UBE3A protein (Homo sapiens (Human)) (UniProt Q05086); experiment: Simoa; capture GTX; SBG 75 pm; UBE3A 0.00128 ng/ml
[5] = target: recombinant UBE3A protein (Homo sapiens (Human)) (UniProt Q05086); experiment: 3-step Simoa, 120 min bead step; capture GTX; UBE3A 0.00640 ng/ml
[6] = target: recombinant UBE3A protein (Homo sapiens (Human)) (UniProt Q05086); experiment: Simoa; capture GTX, no helper beads; 3E5 0.1 ug/ml; UBE3A 0.160 ng/ml
[7] = target: recombinant UBE3A protein (Homo sapiens (Human)) (UniProt Q05086); experiment: Simoa; capture GTX; 3E5 0.4 ug/ml; UBE3A 20.0 ng/ml
[8] = target: recombinant UBE3A protein (Homo sapiens (Human)) (UniProt Q05086); experiment: Simoa head-to-head, Table 11; capture MS 2F6; UBE3A 100 ng/ml
[9] = target: recombinant UBE3A protein (Homo sapiens (Human)) (UniProt Q05086); experiment: Simoa head-to-head, Table 11; capture MS 2F6; UBE3A 0.032 ng/ml
[10] = target: recombinant UBE3A protein (Homo sapiens (Human)) (UniProt Q05086); experiment: Simoa; capture GTX; 3E5 0.4 ug/ml; UBE3A 0.00128 ng/ml
[11] = target: recombinant UBE3A protein (Homo sapiens (Human)) (UniProt Q05086); experiment: Simoa; capture GTX + helper beads; 3E5 0.1 ug/ml; UBE3A 0.160 ng/ml
[12] = target: recombinant UBE3A protein (Homo sapiens (Human)) (UniProt Q05086); experiment: Simoa; capture GTX; 3E5 0.1 ug/ml; UBE3A 0.0320 ng/ml
[13] = target: recombinant UBE3A protein (Homo sapiens (Human)) (UniProt Q05086); experiment: Simoa; capture GTX; SBG 100 pm; UBE3A 0.00640 ng/ml
[14] = target: recombinant UBE3A protein (Homo sapiens (Human)) (UniProt Q05086); experiment: Simoa; capture GTX + helper beads; 3E5 0.2 ug/ml; UBE3A 0.0320 ng/ml
[15] = target: recombinant UBE3A protein (Homo sapiens (Human)) (UniProt Q05086); experiment: Simoa; capture GTX, no helper beads; 3E5 0.2 ug/ml; UBE3A 0.800 ng/ml
[16] = target: recombinant UBE3A protein (Homo sapiens (Human)) (UniProt Q05086); experiment: Simoa; capture GTX + helper beads; 3E5 0.2 ug/ml; UBE3A 20.0 ng/ml
[17] = target: recombinant UBE3A protein (Homo sapiens (Human)) (UniProt Q05086); experiment: Simoa; capture GTX, no helper beads; 3E5 0.2 ug/ml; UBE3A 0.00128 ng/ml
[18] = target: recombinant UBE3A protein (Homo sapiens (Human)) (UniProt Q05086); experiment: Simoa head-to-head, Table 10; capture MS 2F6; UBE3A 4.00 ng/ml
[19] = target: recombinant UBE3A protein (Homo sapiens (Human)) (UniProt Q05086); experiment: Simoa; capture GTX + helper beads; 3E5 0.4 ug/ml; UBE3A 0.800 ng/ml
[20] = target: recombinant UBE3A protein (Homo sapiens (Human)) (UniProt Q05086); experiment: Simoa; capture GTX, no helper beads; 3E5 0.2 ug/ml; UBE3A 0.00640 ng/ml

Sequence of UniProt Q05086 (Q05086 whole entry): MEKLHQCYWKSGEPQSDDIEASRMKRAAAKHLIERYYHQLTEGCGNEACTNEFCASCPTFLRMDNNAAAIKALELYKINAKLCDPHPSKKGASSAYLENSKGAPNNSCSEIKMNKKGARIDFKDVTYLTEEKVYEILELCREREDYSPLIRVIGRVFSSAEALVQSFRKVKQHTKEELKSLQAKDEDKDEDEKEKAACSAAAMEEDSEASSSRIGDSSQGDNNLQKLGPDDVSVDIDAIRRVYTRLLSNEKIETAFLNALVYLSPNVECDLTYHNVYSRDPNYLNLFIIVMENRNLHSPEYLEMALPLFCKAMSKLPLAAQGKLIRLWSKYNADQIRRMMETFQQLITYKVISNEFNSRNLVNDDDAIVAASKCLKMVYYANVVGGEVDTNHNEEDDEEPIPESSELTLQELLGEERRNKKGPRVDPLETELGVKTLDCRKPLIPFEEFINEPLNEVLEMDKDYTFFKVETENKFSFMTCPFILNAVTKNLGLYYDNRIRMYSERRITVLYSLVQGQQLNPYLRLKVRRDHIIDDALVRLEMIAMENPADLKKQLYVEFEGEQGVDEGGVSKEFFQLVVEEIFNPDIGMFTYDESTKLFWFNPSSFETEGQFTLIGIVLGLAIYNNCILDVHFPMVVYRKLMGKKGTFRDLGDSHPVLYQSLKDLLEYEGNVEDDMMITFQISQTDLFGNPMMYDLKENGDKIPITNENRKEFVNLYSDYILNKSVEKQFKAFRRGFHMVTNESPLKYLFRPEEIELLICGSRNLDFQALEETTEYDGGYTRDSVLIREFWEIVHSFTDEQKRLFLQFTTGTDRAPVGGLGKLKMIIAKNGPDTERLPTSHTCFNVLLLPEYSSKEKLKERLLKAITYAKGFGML

AEB1 [1]: 0.0143
AEB2 [1]: 0.0128
Ave AEB [1]: 0.0135
Signal to Background [1]: 6.2
Substance: NB500-240 (Novus) (antibody)

AEB1 [2]: 0.271
AEB2 [2]: 0.285
AEB3 [2]: 0.279
Average AEB [2]: 0.278
Signal to Background [2]: 21
AEB1 [3]: 0.037
AEB2 [3]: 0.0369
Average AEB [3]: 0.037
Signal to Background [3]: 1.89
AEB1 [4]: 0.0046
AEB2 [4]: 0.0045
AEB3 [4]: 0.0047
Average AEB [4]: 0.0046
Signal to Background [4]: 1.06
AEB1 [5]: 0.0054
AEB2 [5]: 0.0055
Ave AEB [5]: 0.0055
Signal to Background [5]: 3.22
AEB1 [6]: 0.0402
AEB2 [6]: 0.0395
Average AEB [6]: 0.0399
Signal to Background [6]: 6.95
AEB1 [7]: 6.82
AEB2 [7]: 7.9
AEB3 [7]: 7.67
Average AEB [7]: 7.46
Signal to Background [7]: 119
AEB1 [8]: 1.79
AEB2 [8]: 1.84
Ave AEB [8]: 1.81
Signal to Background [8]: 479
AEB1 [9]: 0.0032
AEB2 [9]: 0.0043
Ave AEB [9]: 0.0037
Signal to Background [9]: 0.986
AEB1 [10]: 0.0769
AEB2 [10]: 0.072
AEB3 [10]: 0.0724
Average AEB [10]: 0.0738
Signal to Background [10]: 1.18
AEB1 [11]: 0.0417
AEB2 [11]: 0.0425
Average AEB [11]: 0.0421
Signal to Background [11]: 7.34
AEB1 [12]: 0.0351
AEB2 [12]: 0.04
AEB3 [12]: 0.0401
Average AEB [12]: 0.0384
Signal to Background [12]: 1.99
AEB1 [13]: 0.0098
AEB2 [13]: 0.0098
AEB3 [13]: 0.0111
Average AEB [13]: 0.0103
Signal to Background [13]: 1.22
AEB1 [14]: 0.0226
AEB2 [14]: 0.0236
Average AEB [14]: 0.0231
Signal to Background [14]: 2.39
AEB1 [15]: 0.25
AEB2 [15]: 0.247
Average AEB [15]: 0.249
Signal to Background [15]: 25.7
AEB1 [16]: 5.63
AEB2 [16]: 5.39
Average AEB [16]: 5.51
Signal to Background [16]: 570
AEB1 [17]: 0.0099
AEB2 [17]: 0.0139
Average AEB [17]: 0.0119
Signal to Background [17]: 1.23
AEB1 [18]: 0.132
AEB2 [18]: 0.127
Ave AEB [18]: 0.13
Signal to Background [18]: 9.58
AEB1 [19]: 0.341
AEB2 [19]: 0.333
Average AEB [19]: 0.337
Signal to Background [19]: 17.2
AEB2 [20]: 0.012
Average AEB [20]: 0.012
Signal to Background [20]: 1.24
Substance: anti-UBE3A antibody 3E5 (SAB1404508-100 ug, Millipore-Sigma)
